Patent publication EP1257648B2 (AMGEN INC., dated 2016)
Where “and” joins values, the source holds several entries; their conditions need not be identical. Identical values can stand only once.

T1: human OPGbp[143-317] (human, UniProt O14788 143-317)
T1 sequence (looked up): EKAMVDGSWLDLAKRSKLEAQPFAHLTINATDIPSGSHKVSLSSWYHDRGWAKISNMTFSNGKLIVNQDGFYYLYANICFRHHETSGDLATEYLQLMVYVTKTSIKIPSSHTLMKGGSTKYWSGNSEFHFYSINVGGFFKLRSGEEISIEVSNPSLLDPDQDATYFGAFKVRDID

B1: human OPG [22-194]-Fc (Fc fusion, UniProt O00300 22-194, looked up, not shown: a dimerising Fc or GST)
chain: ETFPPKYLHYDEETSHQLLCDKCPPGTYLKQHCTAKWKTVCAPCPDHYYTDSWHTSDECLYCSPVCKELQYVKQECNRTHNRVCECKEGRYLEIEFCLKHRSCPPGFGVVQAGTPERNTVCKRCPDGFFSNETSSKAPCRKHTNCSVFGLLLTQKGNATHDNICSGNSESTQK
B2: Fab "AT" (Fab, V domains shown)
VH: QVQLVQSGAEVRKPGASVKVSCKASGYDFSNYAIHWVRQAPGQRLEWMGWINAGNGNTKFSQKFQGRITVTRDTAASTAYMELRSLRSEDTAVYYCARDSSNMVRGIIIAYYFDYWGQGTLVTVSS
VL: EIVMTQSPSSLSASVGDRVTITCRASQSISRYLNWYQLKPGKAPRLLIYGASSLQSGVPSRFSGSGSGAEFTLTISSLQPEDIATYYCQHTRAFGQGTKVEIKR
B3: "AT" antibody (antibody, V domains shown)
VH: B2 VH
VL: B2 VL

Molecular target: T1, human OPGbp[143-317]
Experiment: cell-based or functional assay

Binder	IC50, RAW cell assay (TRAP), positive control [µg/mL]	IC50, RAW cell assay (TRAP)	IC50, murine bone marrow osteoclast formation assay (TRAP, pNPP) [nM]	IC50, bone marrow assay (TRAP)	IC50, murine bone marrow assay (TRAP)
B1	0.033	–	–	–	–
B2	–	15 µg/ml and 300 nM	57.8	–	–
B3	–	60.3 nM and 21.4 nM and 3 ug/ml and 9 ug/ml and 3.2 ug/ml and 20.1 nM	–	2.35 µg/ml and 14.4 nM	2.15 ug/ml and 14.4 nM and 1.85 ug/ml and 12.5 nM
